Assay results as given in PMC2705282 (Journal of molecular biology, 2009).
Residue numbers refer to the chain shown, from its start. Names may count otherwise.

B1: wild-type URO-D module of single-chain URO-D (enzyme, human)
chain: MEANGLGPQGFPELKNDTFLRAAWGEETDYTPVWCMRQAGRYLPEFRETRAAQDFFSTCRSPEACCELTLQPLRRFPLDAAIIFSDILVVPQALGMEVTMVPGKGPSFPEPLREEQDLERLRDPEVVASELGYVFQAITLTRQRLAGRVPLIGFAGAPWTLMTYMVEGGGSSTMAQAKRWLYQRPQASHQLLRILTDALVPYLVGQVVAGAQALQLFESHAGHLGPQLFNKFALPYIRDVAKQVKARLREAGLAPVPMIIFAKDGHFALEELAQAGYEVVGLDWTVAPKKARECVGKTVTLQGNLDPCALYASEEEIGQLVKQMLDDFGPHRYIANLGHGLYPDMDPEHVGAFVDAVHKHSRLLRQN
B2: F217Y URO-D module of single-chain URO-D (enzyme, human)
chain: B1 chain with F217Y
B3: Y164G URO-D module of single-chain URO-D (enzyme, human)
chain: B1 chain with Y164G

Columns and labels:
[1] = biological target: B2; assay: crystal structure
[2] = biological target: B1; assay: crystal structure

Row | binding result [1] | binding result [2] | Binder
1 | binds |  | B1
2 |  | binds | B2
3 |  | binds | B3
